The source of these data is patent publication US20230031670, “METHOD AND KIT FOR DETECTION OF POLYNUCLEOTIDE” (Counci of Scientific & Industrial Research, published 2023).

Residue numbers refer to the chain shown, from its start.

Settings in all cases: tags: GFP; Ni-NTA purified
The target of data set [1] is T1, dFnCas9-GFP (Francisella novicida, UniProt A0Q5Y3 SEQ:272-1899).
T1 chain: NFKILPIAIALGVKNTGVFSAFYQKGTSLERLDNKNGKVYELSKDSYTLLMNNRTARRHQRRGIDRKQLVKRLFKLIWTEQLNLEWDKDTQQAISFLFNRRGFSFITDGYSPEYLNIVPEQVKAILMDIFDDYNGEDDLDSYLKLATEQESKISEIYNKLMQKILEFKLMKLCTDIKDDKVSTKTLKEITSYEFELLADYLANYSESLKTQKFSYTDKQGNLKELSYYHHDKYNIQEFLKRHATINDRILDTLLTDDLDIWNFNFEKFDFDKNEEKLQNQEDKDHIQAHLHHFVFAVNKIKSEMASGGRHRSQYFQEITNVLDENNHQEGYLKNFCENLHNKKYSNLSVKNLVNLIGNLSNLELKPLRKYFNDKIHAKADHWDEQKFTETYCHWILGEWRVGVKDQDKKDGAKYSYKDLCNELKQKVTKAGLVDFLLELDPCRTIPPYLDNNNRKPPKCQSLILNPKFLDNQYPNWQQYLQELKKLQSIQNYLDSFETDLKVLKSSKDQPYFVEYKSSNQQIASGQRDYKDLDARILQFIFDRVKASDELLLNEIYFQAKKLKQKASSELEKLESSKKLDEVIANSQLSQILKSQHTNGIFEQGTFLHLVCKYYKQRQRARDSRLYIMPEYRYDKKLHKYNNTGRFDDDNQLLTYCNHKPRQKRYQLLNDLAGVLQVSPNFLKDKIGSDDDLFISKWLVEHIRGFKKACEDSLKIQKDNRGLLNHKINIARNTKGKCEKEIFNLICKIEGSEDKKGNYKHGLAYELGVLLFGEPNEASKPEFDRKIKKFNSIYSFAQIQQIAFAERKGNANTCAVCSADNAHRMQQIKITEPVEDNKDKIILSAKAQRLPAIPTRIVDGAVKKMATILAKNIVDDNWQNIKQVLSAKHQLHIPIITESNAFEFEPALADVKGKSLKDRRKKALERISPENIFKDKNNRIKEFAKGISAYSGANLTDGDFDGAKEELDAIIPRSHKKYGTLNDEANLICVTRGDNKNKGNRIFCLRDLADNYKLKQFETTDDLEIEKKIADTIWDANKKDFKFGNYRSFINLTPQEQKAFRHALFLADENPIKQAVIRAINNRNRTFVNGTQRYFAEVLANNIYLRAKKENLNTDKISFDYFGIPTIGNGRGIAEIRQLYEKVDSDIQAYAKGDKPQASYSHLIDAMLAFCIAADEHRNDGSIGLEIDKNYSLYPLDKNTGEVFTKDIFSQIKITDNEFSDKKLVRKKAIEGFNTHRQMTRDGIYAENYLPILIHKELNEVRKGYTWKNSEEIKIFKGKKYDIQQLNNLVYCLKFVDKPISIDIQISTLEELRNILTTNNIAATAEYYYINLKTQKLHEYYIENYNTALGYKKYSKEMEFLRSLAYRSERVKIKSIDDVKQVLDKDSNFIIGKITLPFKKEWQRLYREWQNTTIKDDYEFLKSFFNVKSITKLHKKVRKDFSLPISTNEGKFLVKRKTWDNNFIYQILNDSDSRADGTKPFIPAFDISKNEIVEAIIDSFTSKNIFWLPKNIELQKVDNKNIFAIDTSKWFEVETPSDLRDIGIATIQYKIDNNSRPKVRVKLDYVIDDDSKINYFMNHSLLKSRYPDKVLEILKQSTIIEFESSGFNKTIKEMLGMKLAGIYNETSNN
Nature of the data set: MST; low Kd, value in figure only; 30 bp dsDNA, 10 mM MgCl2. On the procedure:
(§1) MST was performed as reported previously [Dong, D. et al. The crystal structure of Cpfl in complex with CRISPR RNA. Nature (2016); Wienken, C. J., Baaske, P., Rothbauer, U., Braun, D. & Duhr, S. Protein-binding assays in biological liquids using microscale thermophoresis. Nat. Commun. (2010)]. Briefly, dFnCAS9-GFP (SEQ ID NO: 3) protein was complexed with PAGE purified respective IVT sgRNAs (purified by 12% Urea-PAGE). The binding affinities of the CAS9 proteins and sgRNA RNP complexes were calculated using Monolith NT. 115 (NanoTemper Technologies GmbH, Munich, Germany). RNP complex (Protein:sgRNA molar ratio,1:1) was reconstituted at 25° C. for 10 mins in reaction buffer (20 mM HEPES, pH7.5, 150 mM KCl, 1 mM DTT, 10 mM MgCl₂). HPLC purified 30 bp dsDNA (IDT) of different genomic loci with varying concentrations (ranging from 0.09 nM to 30,t/M) were incubated with RNP complex at 37° C. temperature for 30 min in reaction buffer. The sample was loaded into NanoTemper standard treated capillaries and measurements were performed at 25° C. using 20% LED power and 40% MST power. Data analyses were done using NanoTemper analysis software.

The target in data set [2] is T1, dFnCas9-GFP. Nature of the data set: MST; SEQ ID NO 33 mismatches at 2 and 6; no binding seen. As for the experimental part:
as §1

Data set [3] addresses T1, dFnCas9-GFP. Description: MST; no binding seen. As for the experimental part:
as §1

B1: HBB WT sgRNA (FnCas9) ; HBB WT target (ssRNA ; dsDNA)
RNA: GUAACGGCAGACUUCUCCUCAGGGUUUCAGUUGCGCCGAAAGGCGCUCUGUAAUCAUUUAAAAGUAUUUUGAACGGACCUCUGUUUGACACGUCUG
DNA 1: GTAACGGCAGACTTCTCCTC
DNA 2: GAGGAGAAGTCTGCCGTTAC
Regarding B1, the binding result in the data set with dFnCas9-GFP [1] is on record as “binds”.

B2: HBB sgRNA with mismatches at PAM-proximal 2 and 6 (FnCas9) ; HBB WT target (ssRNA ; dsDNA)
RNA: B1 RNA with C15A, U19A
DNA 1: GTAACGGCAGACTTCTCCTC
DNA 2: GAGGAGAAGTCTGCCGTTAC
With B2, the binding result with dFnCas9-GFP [2] is “no binding”.

B3: HBB WT sgRNA (FnCas9) ; HBB mismatched target 1 (ssRNA ; dsDNA)
RNA: B1 RNA
DNA 1: GAAGAAAAGTCTGCCGTTAC
DNA 2: GTAACGGCAGACTTTTCTTC
As for B3, in the data set with dFnCas9-GFP [3], the binding result is “no binding”.
